Data taken from patent US8828380B2, “Method for the treatment of pulmonary disease and method of producing proteins of use therein” (The United States of America, as represented by the …, priority 2009, dated 2014).

Key:
[1] = Incubation of HPLC-purified mono- and di-ADP-ribosyl-HNP-1 at pH 7 or 9, products analysed by HPLC/MS; type: physicochemical
Description: HNP-1 was incubated overnight at 30° C. with 5 mM NAD in 150 μl of 50 mM potassium phosphate, pH 7.5 and ART1. Reactions were terminated by addition of guanidine HCl to a final concentration of 6 M. Products were separated by HPLC and analyzed by mass spectrometry (MS).
HNP-1 was reduced, cleaved by trypsin, and analyzed by reverse phase chromatography-mass spectrometry as described (Paone et al., Proc. Natl. Acad. Sci. USA 99:8231-8235, 2002), except that the reverse phase column was a Zorbax 300SB-C18, 2.1×50 mm, 3.5 micron, and the mass spectrometer was an Agilent model G1969 with a time of flight detector. Mass spectra were deconvoluted with Agilent software MassHunter version 2, and the fraction of each species was calculated from the areas of the deconvoluted peaks.
To verify that ART1 (or an enzymatic contaminant) was not required for ornithine formation, HPLC-purified mono- and di-modified HNP-1 were incubated for 24 hours at 37° C. at pH 7 or 9 and the reaction products were analyzed by HPLC (FIG. 4, Table 1). Di-ADP-ribosylated-HNP-1 degraded to mono-ADP-ribosylated-HNP-1-ornithine of 3940 molecular mass at pH 7 and the amount was greater at pH 9 (FIG. 4A-D). About 50% of di-ADP-ribosylated-HNP-1 degraded to mono-ADP-ribosylated-HNP-1-ornithine at pH 9, with ADP-ribosylated arginine 14 and ornithine at position 24 or ADP-ribosylated arginine 24 and ornithine at position 14.

arginase = target: T1, arginase (Homo sapiens, UniProt P05089); assay: Incubation with manganese-activated arginase, products by amino acid analysis and MS; type: biochemical; conditions: manganese-activated arginase 0.7 U, pH 9.5, 10 minutes, 37° C.
T1 sequence (P05089 1-322): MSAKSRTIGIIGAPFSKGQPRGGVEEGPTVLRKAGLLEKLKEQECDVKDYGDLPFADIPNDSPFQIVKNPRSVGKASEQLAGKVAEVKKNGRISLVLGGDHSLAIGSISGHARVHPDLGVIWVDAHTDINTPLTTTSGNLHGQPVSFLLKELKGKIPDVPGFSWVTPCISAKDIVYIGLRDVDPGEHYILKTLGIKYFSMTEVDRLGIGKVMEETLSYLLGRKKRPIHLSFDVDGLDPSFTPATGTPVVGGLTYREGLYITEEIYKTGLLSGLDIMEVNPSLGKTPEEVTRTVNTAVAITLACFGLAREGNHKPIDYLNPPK
Description: Arginase, found predominantly in liver, catalyzes the hydrolysis of arginine to ornithine in the urea cycle. The enzyme has been reported to require free arginine (Jenkinson et al., Comp. Biochem. Physiol. B Biochem. Mol. Biol. 114:107-132, 1996). HNP-1 was tested as a potential substrate for arginase. HNP-1 (1.4 nmol), mono-ADP-ribosylated-HNP-1 (1 nmol), ADP-ribosylarginine (18 μM), and arginine (5 mM) were each incubated with manganese-activated arginase (0.7 U) at pH 9.5 in 200 μl for 10 minutes at 37° C.

[2] = Non-enzymatic conversion of ADP-ribosylarginine to ornithine, HPLC and amino acid analysis; type: physicochemical
ART1 = target: T2, ART1 (Mus musculus, UniProt Q60935); assay: Substrate test for ART1
T2 sequence (Q60935 23-290 limits assumed): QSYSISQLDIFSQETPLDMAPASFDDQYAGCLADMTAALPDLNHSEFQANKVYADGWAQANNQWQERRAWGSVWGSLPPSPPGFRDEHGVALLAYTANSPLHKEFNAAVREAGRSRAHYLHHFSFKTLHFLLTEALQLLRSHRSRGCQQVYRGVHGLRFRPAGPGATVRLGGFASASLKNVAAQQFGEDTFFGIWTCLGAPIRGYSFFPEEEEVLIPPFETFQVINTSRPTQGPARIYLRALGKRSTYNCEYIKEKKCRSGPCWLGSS

With “ADPR-HNP: HNP-1 ADP-ribosylated on arginine 14” the “percent of species ADPR-HNP at the end of the incubation” value ([1]; pH 7, time 0 h) was 100%, the “percent of species ADPR-HNP-Orn at the end of the incubation” value (“percent of species ADPR-HNP-Orn” below) ([1]; pH 7, time 0 h) was 0% and the “percent of species Di-ADPR-HNP at the end of the incubation” value (shortened to “percent of species Di-ADPR-HNP”) ([1]; pH 7, time 0 h) was 0%. For the same compound, the “percent of species Di-Orn-HNP at the end of the incubation” value (“percent of species Di-Orn-HNP” below) ([1]; pH 7, time 0 h) was 0%, the “percent of species HNP at the end of the incubation” value ([1]; pH 7, time 0 h) was 0% and the “percent of species HNP-Orn at the end of the incubation” value (“percent of species HNP-Orn” for short) ([1]; pH 7, time 0 h) was 0%. The “percent of species ADPR-HNP at the end of the incubation” value ([1]; pH 7, time 24 h) was 82 ± 13%, the “percent of species ADPR-HNP-Orn” value ([1]; pH 7, time 24 h) was 0% and the “percent of species Di-ADPR-HNP” value ([1]; pH 7, time 24 h) was 0%. The “percent of species Di-Orn-HNP” value ([1]; pH 7, time 24 h) was 0%, the “percent of species HNP at the end of the incubation” value ([1]; pH 7, time 24 h) was 0% and the “percent of species HNP-Orn” value ([1]; pH 7, time 24 h) was 18 ± 13%. The “percent of species ADPR-HNP at the end of the incubation” value ([1]; pH 9, time 0 h) was 100%, the “percent of species ADPR-HNP-Orn” value ([1]; pH 9, time 0 h) was 0% and the “percent of species Di-ADPR-HNP” value ([1]; pH 9, time 0 h) was 0%. The “percent of species Di-Orn-HNP” value ([1]; pH 9, time 0 h) was 0%, the “percent of species HNP at the end of the incubation” value ([1]; pH 9, time 0 h) was 0% and the “percent of species HNP-Orn” value ([1]; pH 9, time 0 h) was 0%. For the same compound, the “percent of species ADPR-HNP at the end of the incubation” value ([1]; pH 9, time 24 h) was 61 ± 9%, the “percent of species ADPR-HNP-Orn” value ([1]; pH 9, time 24 h) was 0% and the “percent of species Di-ADPR-HNP” value ([1]; pH 9, time 24 h) was 0%. For the same compound, the “percent of species Di-Orn-HNP” value ([1]; pH 9, time 24 h) was 0%, the “percent of species HNP at the end of the incubation” value ([1]; pH 9, time 24 h) was 0% and the “percent of species HNP-Orn” value ([1]; pH 9, time 24 h) was 39 ± 9%. The “ornithine formation by arginase (substrate or not)” value (arginase) was “ornithine only in the reaction that contained free arginine”.
With `NC(=NCCC[C@H](N)C(=O)O)N[C@H]1O[C@H](COP(=O)(O)OP(=O)(O)OC[C@H]2O[C@@H](n3cnc4c(N)ncnc43)[C@H](O)[C@@H]2O)[C@@H](O)[C@H]1O` [ADP-ribosylarginine] the “ornithine formation by arginase (substrate or not)” value (arginase) was “ornithine only in the reaction that contained free arginine”, the “product of incubation in acid” value ([2]; 6N HCl, 37° C., 24 hours) was “Arginine was cleaved” and the “amount of ornithine generated” value ([2]; incubation at pH 7 or pH 8) was “less than at pH 9”. For the same compound, the “maximal amount of ornithine, of initial ADP-ribosylarginine” value ([2]; pH 9, 24 hours, 37° C., amino acid analysis without prior acid hydrolysis) was 21%.
In the case of `N=C(N)NCCCCN` [agmatine], the “substrate for ART1” value (ART1) is reported as “served as substrates”.
In the case of `N=C(N)NCCC[C@H](N)C(=O)O` [arginine], the “ornithine formation by arginase (substrate or not)” value (arginase) is reported as “ornithine only in the reaction that contained free arginine”, the “substrate for ART1” value (ART1) is reported as “served as substrates” and the “ornithine formation after incubation with free ADP-ribose” value ([2]; 24 hours, 37° C., 20 mM potassium phosphate pH 9) is reported as “No ornithine was identified”.
For `NCCC[C@H](N)C(=O)O` [ornithine, Ornithine], the “substrate for ART1” value (ART1) was “did not”.
